Data published in PMC12102759.

B1: TPTE2 peptide 92-107 (Phosphatidylinositol 3,4,5-trisphosphate 3-phosphatase TPTE2), 16-mer library wild type / TLN1 PTB (TLN1 Phosphotyrosine-binding (PTB) domain, residues 309-401) (parent)
chain 1: LADLIFTDSKLYIPLE
chain 2: GVSFFLVKEKMKGKNKLVPRLLGITKECVMRVDEKTKEVIQEWNLTNIKRWAASPKSFTLDFGDYQDGYYSVQTTEGEQIAQLIAGYIDIILK
B2: PIP5K1C peptide 640-655 (Phosphatidylinositol 4-phosphate 5-kinase type-1 gamma), 16-mer library wild type / TLN1 PTB (TLN1 Phosphotyrosine-binding (PTB) domain, residues 309-401) (parent)
chain 1: FPTDERSWVYSPLHYS
chain 2: B1 chain 2

Variants of: B1
Experiment: proteomic peptide phage display deep mutational scan (ProP-PD DMS): M13 P8 16-mer library selected against immobilised GST-tagged bait for four days (rounds), NGS of the eluted pools per day and pseudo-replica
Conditions: with TLN1 PTB (TLN1 Phosphotyrosine-binding (PTB) domain, residues 309-401); bait immobilised on MaxiSorp plates (10 µg), library pre-cleared on GST, 2 h binding at 4 °C, five washes; one round per day, days 1-4; value from days 2 and 3; keep out of graded; scale: average fractional NGS count over selection days 2 and 3

Variant | screen value
chain 1 D8V | 7.58e-05
chain 1 D8S | 4.41e-05
chain 1 D8K | 2.8e-05
chain 1 S9K | 0
chain 1 L15T | 3.85e-05
chain 1 L15E | 6.68e-05
chain 1 F6Y | 8.2e-05
chain 1 F6P | 9.98e-05
chain 1 F6A | 0
chain 1 F6S | 0
chain 1 F6M | 0
chain 1 F6G | 0
chain 1 P14Q | 0
chain 1 P14M | 0
chain 1 P14E | 0
chain 1 P14Y | 7.88e-05
chain 1 P14R | 0
chain 1 P14S | 2.74e-05
chain 1 P14F | 0

Variants of: B2
Experiment: as above
Conditions: with TLN1 PTB (TLN1 Phosphotyrosine-binding (PTB) domain, residues 309-401); bait immobilised on MaxiSorp plates (10 µg), library pre-cleared on GST, 2 h binding at 4 °C, five washes; one round per day, days 1-4; value from days 2 and 3; keep out of graded; scale: average fractional NGS count over selection days 2 and 3

Variant | screen value
chain 1 S7K | 0.000214
chain 1 S7N | 3.76e-05
chain 1 S7W | 0.000136
chain 1 S7T | 0.000136
chain 1 S7M | 0.000552
chain 1 S7D | 8.2e-05
chain 1 S7V | 6.47e-05
chain 1 S7L | 0.00013
chain 1 S7G | 6.31e-05
chain 1 S7R | 0.000434
chain 1 S7H | 0.00017
chain 1 W8F | 7.15e-05
chain 1 W8G | 0
chain 1 W8D | 0
chain 1 Y10Q | 0.000754
chain 1 Y10L | 0.000358
chain 1 Y10P | 0.000394
chain 1 Y10W | 8.84e-05
chain 1 Y10R | 0.000894
chain 1 Y10V | 0.000724
chain 1 Y10F | 0.000662
chain 1 Y10K | 0.00109
chain 1 Y10H | 6.93e-05
chain 1 Y10A | 0.000303
chain 1 Y10S | 0.00342

Variant | screen value
chain 1 Y10I | 0.000546
chain 1 Y15K | 0.000895
chain 1 Y15T | 0.000245
chain 1 Y15P | 0.000167
chain 1 Y15H | 0.000526
chain 1 Y15F | 0.00152
chain 1 Y15E | 0.000347
chain 1 Y15S | 0.000401
chain 1 Y15V | 0.000186
chain 1 Y15W | 0.000911
chain 1 Y15I | 0.000186
chain 1 Y15D | 0.00126
chain 1 Y15N | 5.2e-05
chain 1 L13I | 0.000497
chain 1 L13Y | 0.000435
chain 1 L13A | 0.000116
chain 1 L13M | 0.000592
chain 1 L13G | 0.000132
chain 1 L13W | 0.00176
chain 1 L13F | 0.00025
chain 1 H14K | 0.00016
chain 1 H14A | 0.000225
chain 1 H14I | 4.44e-05
chain 1 H14W | 5.14e-05
chain 1 H14T | 0.00119

Variant | screen value
chain 1 H14S | 0.000388
chain 1 H14E | 0.000433
chain 1 H14P | 0.000231
chain 1 H14R | 0.000159
chain 1 H14F | 2.74e-05
chain 1 H14V | 0.000348
chain 1 D4A | 0.000109
chain 1 D4P | 7.86e-05
chain 1 D4S | 0.000264
chain 1 D4W | 8.26e-05
chain 1 D4R | 0.000156
chain 1 D4V | 5.15e-05
chain 1 D4T | 0.000121
chain 1 D4F | 0.00015
chain 1 P2T | 0.000173
chain 1 P2N | 0.000183
chain 1 P2F | 2.4e-05
chain 1 P2L | 0.000825
chain 1 P2G | 9.49e-05
chain 1 P2H | 2.4e-05
chain 1 P2Q | 7.98e-05
chain 1 P2D | 0.000759
chain 1 P2Y | 6.83e-05
chain 1 P12H | 5.79e-05
chain 1 P12T | 0.000179

Variant | screen value
chain 1 P12A | 0.000632
chain 1 P12S | 0.000121
chain 1 P12W | 0.000107
chain 1 P12N | 0.000185
chain 1 P12F | 7.27e-05
chain 1 P12I | 0.000302
chain 1 P12L | 0.000701
chain 1 P12G | 0.000862
chain 1 P12Q | 0.000705
chain 1 P12E | 0.00013
chain 1 P12R | 0.000314
chain 1 S11I | 0
chain 1 S11P | 7.58e-05
chain 1 S11L | 0
chain 1 S11D | 0
chain 1 T3D | 5.93e-05
chain 1 T3A | 8.91e-05
chain 1 T3P | 0.000173
chain 1 T3L | 0.00116
chain 1 T3I | 5.15e-05
chain 1 T3H | 0.000204
chain 1 T3V | 4.5e-05
chain 1 T3Q | 0.000354
chain 1 T3W | 0.000436
chain 1 V9R | 0.000353

Variant | screen value
chain 1 V9D | 0.000489
chain 1 V9S | 0.000334
chain 1 V9M | 0.00044
chain 1 V9Q | 0.000257
chain 1 V9T | 0.000147
chain 1 V9L | 0.000573
chain 1 V9F | 0.000141
chain 1 V9N | 0.00995
chain 1 V9W | 0.000872
chain 1 V9K | 0.000808
chain 1 V9E | 0.000929
chain 1 V9I | 5.76e-05
chain 1 E5P | 0.00165
chain 1 E5V | 0.00021
chain 1 E5A | 0.000188
chain 1 E5I | 0.000716
chain 1 E5Q | 6.1e-05
chain 1 E5G | 0.000212
chain 1 E5W | 0.000904
chain 1 E5T | 0.000451
chain 1 E5F | 0.000369
chain 1 E5M | 0.000263
chain 1 E5L | 0.00192
chain 1 E5H | 0.000485
chain 1 S16H | 0.00034

Variant | screen value
chain 1 S16Y | 0.000212
chain 1 S16N | 0.000165
chain 1 S16V | 0.000729
chain 1 S16F | 0.000114
chain 1 S16M | 0.000225
chain 1 S16L | 0.000143
chain 1 S16A | 0.000894
chain 1 S16T | 0.000518
chain 1 S16G | 0.00097
chain 1 S16I | 0.00119
chain 1 R6E | 0
chain 1 R6K | 9.21e-05
chain 1 R6N | 8.35e-05
chain 1 R6Y | 0.000115
chain 1 R6W | 0.000249
chain 1 R6L | 0.000156
chain 1 R6T | 0.000205
chain 1 R6I | 0.000686
chain 1 R6H | 3.76e-05
chain 1 R6A | 0.00241
chain 1 R6F | 0
chain 1 R6P | 0.000213
chain 1 R6D | 0.000455
